Values joined by “and” are separate entries in the source; they are usually repeats but may differ in a detail not shown here. Equal entries are not always repeated. Where two headings read alike, the source gives them in different places. Square brackets hold non-standard residues; d marks the D form. Ends that are not written are not given here. pS = N[C@@H](COP(=O)(O)O)C(=O)O
T1: MAP2c fully phosphorylated by PKA (rat, UniProt P15146-3 1-467, almost complete phosphorylation at Ser184, Thr220, and Ser435)
T1 construct: microtubule-associated protein 2c (MAP2c), rat, 467 residues, UniProt A6KFC7; 15N,13C-labelled for the HNCO experiments; also called MP‐MAP2c; source: MAP2c expressed and purified as described earlier, incubated overnight with PKA at 27 °C, purified on HiTrap SP
T1 sequence (looked up): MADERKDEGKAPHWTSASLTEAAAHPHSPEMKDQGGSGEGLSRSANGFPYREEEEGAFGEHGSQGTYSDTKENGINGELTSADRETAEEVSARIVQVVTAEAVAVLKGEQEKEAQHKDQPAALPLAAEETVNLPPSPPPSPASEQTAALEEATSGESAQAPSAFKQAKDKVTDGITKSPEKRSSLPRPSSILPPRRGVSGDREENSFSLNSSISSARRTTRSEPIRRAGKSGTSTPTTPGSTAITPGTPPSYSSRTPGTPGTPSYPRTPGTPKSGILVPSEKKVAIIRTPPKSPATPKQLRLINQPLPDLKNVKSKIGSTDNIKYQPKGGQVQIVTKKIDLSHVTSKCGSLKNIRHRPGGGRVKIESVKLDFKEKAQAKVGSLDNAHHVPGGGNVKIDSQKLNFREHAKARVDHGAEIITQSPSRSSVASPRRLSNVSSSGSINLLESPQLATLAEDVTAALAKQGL

T2: MAP2c phosphorylated selectively by PKA at Ser435 (rat, UniProt P15146-3 1-467, phosphoserine at 435)
T2 construct: microtubule-associated protein 2c (MAP2c), rat, 467 residues, UniProt A6KFC7; 15N,13C-labelled for the HNCO experiments; also called SP‐MAP2c; source: MAP2c expressed and purified as described earlier, incubated with PKA for 1 h at 27 °C, purified on HiTrap SP
T2 sequence (looked up): T1 sequence (looked up)

T3: unphosphorylated MAP2c (microtubule associated protein 2c) (rat, UniProt P15146-3 1-467)
T3 construct: microtubule-associated protein 2c (MAP2c), rat, 467 residues, UniProt A6KFC7; 15N,13C-labelled (M9 medium) for the HNCO experiments; also called UP‐MAP2c
T3 sequence (looked up): T1 sequence (looked up)

T4: monomeric 14‐3‐3ζ‐L12E/M78K/C25A/C189A, P63104
T4 chain: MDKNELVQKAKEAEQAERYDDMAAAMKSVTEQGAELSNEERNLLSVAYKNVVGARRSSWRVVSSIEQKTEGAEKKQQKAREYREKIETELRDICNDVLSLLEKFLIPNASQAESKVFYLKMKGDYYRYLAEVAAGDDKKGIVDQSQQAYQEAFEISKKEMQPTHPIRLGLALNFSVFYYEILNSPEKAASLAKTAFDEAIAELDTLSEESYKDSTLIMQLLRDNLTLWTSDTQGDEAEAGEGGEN

B1: dimeric pseudo wild‐type 14‐3‐3ζ (14‐3‐3ζ C25A/C189A) (natural protein)
chain: SVDMDKNELVQKAKLAEQAERYDDMAAAMKSVTEQGAELSNEERNLLSVAYKNVVGARRSSWRVVSSIEQKTEGAEKKQQMAREYREKIETELRDICNDVLSLLEKFLIPNASQAESKVFYLKMKGDYYRYLAEVAAGDDKKGIVDQSQQAYQEAFEISKKEMQPTHPIRLGLALNFSVFYYEILNSPEKAASLAKTAFDEAIAELDTLSEESYKDSTLIMQLLRDNLTLWTSDTQGDEAEAGEGGEN
notes: additional residues at the N-terminus; 14-3-3ζ, residues 1-245, UniProt P63104; C25A and C189A count on P63104; The results speak of '230 residues examined' in the crystals, the methods of residues 1-245 plus SVD; also called d14‐3‐3ζ; dimeric 14‐3‐3ζ
B2: peptide corresponding to residues 333–362 of MAP2c (peptide)
peptide: QIVTKKIDLSHVTSKCGSLKNIRHRPGGGR
notes: source: synthetic peptide, ordered from Clonestar
B3: unphosphorylated MAP2c fragment 300–467 (MTBD and CTD) (domain or fragment, rat, UniProt P15146-3 300-467, looked up)
chain: LRLINQPLPDLKNVKSKIGSTDNIKYQPKGGQVQIVTKKIDLSHVTSKCGSLKNIRHRPGGGRVKIESVKLDFKEKAQAKVGSLDNAHHVPGGGNVKIDSQKLNFREHAKARVDHGAEIITQSPSRSSVASPRRLSNVSSSGSINLLESPQLATLAEDVTAALAKQGL
notes: MAP2c, rat, UniProt A6KFC7, residues 300-467, covering MTBD and CTD; also called UP‐(300–467); source: cloned into pET28a (NcoI, BamHI); expressed and purified by the same protocol as MAP2c
B4: MAP2c fragment 300–467 phosphorylated by PKA on Ser435 (domain or fragment, rat, UniProt P15146-3 300-467, looked up)
chain: B3 chain
modifications: phosphoserine at 435
notes: MAP2c, rat, UniProt A6KFC7, residues 300-467, covering MTBD and CTD; also called SP‐(300–467); source: cloned into pET28a; expressed and purified by the same protocol as MAP2c; incubated overnight with PKA at 27 °C
B5: phosphopeptide corresponding to residues 432–439 of MAP2c (peptide)
peptide: RRL[pS]NVSS
notes: as for B2
B6: MAP2c microtubule binding domain fragment, residues 300–399 (domain or fragment, rat, UniProt P15146-3 300-399, looked up)
chain: LRLINQPLPDLKNVKSKIGSTDNIKYQPKGGQVQIVTKKIDLSHVTSKCGSLKNIRHRPGGGRVKIESVKLDFKEKAQAKVGSLDNAHHVPGGGNVKIDS
notes: MAP2c, rat, UniProt A6KFC7, residues 300-399, containing the MTBD; also called UP‐(300–399); MTBD; source: cloned into pET28a (NcoI, BamHI); expressed in M9 medium (15N,13C) and purified by the same protocol as MAP2c
B7: monomeric 14‐3‐3ζ‐L12E/M78K/C25A/C189A, P63104 1-245 (natural protein)
chain: T4 chain

Assays:
[1] = target: MAP2c phosphorylated selectively by PKA at Ser435 (rat) (UniProt P15146); experiment: NMR titration; 31P 1D NMR; 60 μM SP-MAP2c or MP-MAP2c with 12.5-300 μM d14-3-3ζ or 12.5-200 μM m14-3-3ζ; chemical shift changes fitted; apparent KD
[2] = target: MAP2c phosphorylated selectively by PKA at Ser435 (rat) (UniProt P15146); experiment: ITC; 14-3-3ζ (d: 2.9-3 mM; m: 1.5 mM) injected into the cell with 90 μM MAP2c or 220 μM fragment 300-467; 27 °C; 50 mM MOPS, 100 mM NaCl, 4 mM β-mercaptoethanol; one set of sites; apparent KD
[3] = target: unphosphorylated MAP2c (microtubule associated protein 2c) (rat) (UniProt P15146); experiment: cross-linking; DSBU (200 μM) cross-linking, SDS/PAGE and LC-MS/MS; 20 μM UP-/MP-MAP2c with 80 μM d14-3-3ζ or m14-3-3ζ, or 80 μM d14-3-3ζ with 100 or 400 μM UP-(333-362); PBS, 1 mM TCEP, 37 °C
[4] = target: T1, MAP2c fully phosphorylated by PKA; experiment: as above
[5] = target: T1, MAP2c fully phosphorylated by PKA; experiment: ITC; 14-3-3ζ (d: 2.9-3 mM; m: 1.5 mM) injected into the cell with 90 μM MAP2c or 220 μM fragment 300-467; 27 °C; 50 mM MOPS, 100 mM NaCl, 4 mM β-mercaptoethanol; one set of sites; apparent KD
[6] = target: T2, MAP2c phosphorylated selectively by PKA …; experiment: NMR titration; 31P 1D NMR; 60 μM SP-MAP2c or MP-MAP2c with 12.5-300 μM d14-3-3ζ or 12.5-200 μM m14-3-3ζ; chemical shift changes fitted; apparent KD; settings: both partners purified
[7] = target: T3, unphosphorylated MAP2c (microtubule …); experiment: cross-linking; DSBU (200 μM) cross-linking, SDS/PAGE and LC-MS/MS; 20 μM UP-/MP-MAP2c with 80 μM d14-3-3ζ or m14-3-3ζ, or 80 μM d14-3-3ζ with 100 or 400 μM UP-(333-362); PBS, 1 mM TCEP, 37 °C; settings: both partners purified
[8] = target: the molecule itself; experiment: as above
[9] = target: T3, unphosphorylated MAP2c (microtubule …); experiment: ITC; 14-3-3ζ (d: 2.9-3 mM; m: 1.5 mM) injected into the cell with 90 μM MAP2c or 220 μM fragment 300-467; 27 °C; 50 mM MOPS, 100 mM NaCl, 4 mM β-mercaptoethanol; one set of sites; apparent KD; settings: both partners purified
[10] = target: T2, MAP2c phosphorylated selectively by PKA …; experiment: as above; settings: both partners purified
[11] = target: B1; experiment: ITC; 3 mM d14-3-3ζ injected into 160 μM SP-(432-439) or 150 μM UP-(333-362); 27 °C; 50 mM MOPS, 100 mM NaCl, 4 mM β-mercaptoethanol; n set to one in the fit; settings: both partners purified
[12] = target: B1; experiment: ITC; 14-3-3ζ (d: 2.9-3 mM; m: 1.5 mM) injected into the cell with 90 μM MAP2c or 220 μM fragment 300-467; 27 °C; 50 mM MOPS, 100 mM NaCl, 4 mM β-mercaptoethanol; one set of sites; apparent KD; settings: both partners purified
[13] = target: B1; experiment: NMR titration; 3D HNCO peak broadening; 350 μM 15N,13C-UP-(300-399) with 350 μM d14-3-3ζ; 27 °C; NMR buffer; settings: both partners purified
[14] = target: T4, monomeric 14‐3‐3ζ‐L12E/M78K/C25A/C189A, …; experiment: ITC; free m14-3-3ζ titrated into ITC buffer; heat of dissociation; dimer to monomers; settings: remark: other sources report otherwise
[15] = target: T4, monomeric 14‐3‐3ζ‐L12E/M78K/C25A/C189A, …; experiment: native gel or EMSA; native PAGE; 100 μM d14-3-3ζ or m14-3-3ζ with 0-400 μM MP-MAP2c, 15 min at room temperature; 10% gel, 25 mM Tris, 192 mM glycine, 4 °C; settings: remark: other sources report otherwise

Question: With “monomeric 14‐3‐3ζ‐L12E/M78K/C25A/C189A (from UniProt P63104 1-245) (natural protein)” as the molecule, how does the Kd [1] read?
Answer: The Kd was 133 µM.

Question: What about the Kd [2] of the same molecule?
Answer: The Kd was 102 µM.

Question: And the dH [2]?
Answer: The dH was 2.49 kcal/mol.

Question: What about the stoichiometry N [2] of the same molecule?
Answer: Its stoichiometry N is 1.51.

Question: What about the stoichiometry N [3] of the same molecule?
Answer: The stoichiometry N was 2.

Question: What about the stoichiometry N [4] of the same molecule?
Answer: The stoichiometry N was 2.

Question: And the Kd [5]?
Answer: Its Kd is 17 µM.

Question: What about the dH [5] of the same molecule?
Answer: Its dH is 0.765 kcal/mol.

Question: And the stoichiometry N [5]?
Answer: Its stoichiometry N is 1.31.

Question: B1 was tested. Which Kd [6] did it give?
Answer: Its Kd is 7.3 µM and < 15 µM.

Question: What about the “stoichiometry N” value [6] of the same molecule?
Answer: Its value is 2.73 ± 0.2.

Question: What about the “stoichiometry N” value [7] of the same molecule?
Answer: The value was 2.

Question: What about the “stoichiometry N” value ([4]; both partners purified) of the same molecule?
Answer: The value was 2.

Question: Does B1 bind [8]?
Answer: Result: binds

Question: What about the Kd [9] of the same molecule?
Answer: Its Kd is 58 ± 6 µM.

Question: What about the dH [9] of the same molecule?
Answer: Its dH is 2.72 ± 0.12 kcal/mol.

Question: And the “stoichiometry N” value [9]?
Answer: Its value is 1.93 ± 0.03.

Question: What about the Kd [10] of the same molecule?
Answer: The Kd was 74 ± 21 µM.

Question: And the dH [10]?
Answer: Its dH is 2.08 ± 0.239 kcal/mol.

Question: What about the “stoichiometry N” value [10] of the same molecule?
Answer: Its value is 2.68 ± 0.12.

Question: What about the Kd ([5]; both partners purified) of the same molecule?
Answer: Its Kd is 21 ± 3 µM.

Question: And the dH ([5]; both partners purified)?
Answer: Its dH is 1.34 ± 0.0478 kcal/mol.

Question: And the “stoichiometry N” value ([5]; both partners purified)?
Answer: Its value is 1.99 ± 0.04.

Question: B2 was tested. Which Kd [11] did it give?
Answer: The Kd was 1800 ± 100 µM.

Question: B3 was tested. Which Kd [12] did it give?
Answer: The Kd was 56 ± 8 µM.

Question: For B4, which Kd [12] is on record?
Answer: The Kd was 24 ± 6 µM.

Question: Which Kd [11] does the source give for B5 here?
Answer: The Kd was 3200 ± 400 µM.

Question: Does B6 bind [13]?
Answer: Result: binds

Question: How did the Kd [14] turn out when B7 was run?
Answer: Its Kd is 600 µM.

Question: And the percent present as a dimer at 100 μM [15]?
Answer: Its percent present as a dimer at 100 μM is 20%.

Reference: PMC12001206, “Characterization of multiple binding sites on microtubule associated protein 2c recognized by dimeric and monomeric 14‐3‐3ζ” (The Febs Journal, 2025)
